Test results reported in US20020164620A1, “Method for identifying compounds modulating sister chromatid separation” (Boehringer Ingelheim International GmbH, priority 2001, published 2002).

Experiments:
[1] = test system: human separase; test: SCC1 in vitro cleavage assay; assay type: biochemical; settings: substance added to mitotically activated separase immunoprecipitates before SCC1-myc reaction mix
Experimental: (§1) 30 microliter beads were incubated with 40 μg bacterially expressed wildtype securin, destruction box deleted form of securin (Gmachl et al., 2000) or BSA diluted in XB+1 mM DTT for 40 min at RT. Subsequently the beads were washed with XB+1 mM DTT and with TBS+0.5 M NaCl+1 mM DTT+0.5% TWEEN20, followed by one wash with XB+1 mM DTT. To control the rebinding of securin an aliquot of 5 μl was taken per assay and subsequently analysed by immunoblotting with antibodies against separase and securin.
The beads were used for the SCC1 in vitro cleavage assay: 20 μl beads were mixed with 30 μl of the following SCC1 in vitro translation mix (SCC1 myc IVT+1 μl PLK-GST+0.3 μl […], 0.3 μl 100 mM ATP, 0.12 μl 250 mM EGTA, 13.78 μl XB+1 mM DTT) and incubated at 22° C. and 1200 rpm. 5 μl were taken per time point, the reaction was stopped by addition of SDS loading buffer. Samples were analyzed by immunoblotting with mouse monoclonal antibodies against myc (9E10).
(§2) B. Separase immunoprecipitates were incubated with 100 μM Biotin-SVEQGR-amk or with DMSO prior mitotic activation. Incubation for 10 minutes, 22° C. and 1000 rpm. After washing twice in XB+1 mM DTT the activation was performed in mitotic Xenopus egg extracts.
Interphase Xenopus egg extracts were driven into mitosis in the presence of 1 mM Biotin-SVEQGR-amk or DMSO. […]
Target sequence in this assay (Q14674 1536-2120 limits assumed): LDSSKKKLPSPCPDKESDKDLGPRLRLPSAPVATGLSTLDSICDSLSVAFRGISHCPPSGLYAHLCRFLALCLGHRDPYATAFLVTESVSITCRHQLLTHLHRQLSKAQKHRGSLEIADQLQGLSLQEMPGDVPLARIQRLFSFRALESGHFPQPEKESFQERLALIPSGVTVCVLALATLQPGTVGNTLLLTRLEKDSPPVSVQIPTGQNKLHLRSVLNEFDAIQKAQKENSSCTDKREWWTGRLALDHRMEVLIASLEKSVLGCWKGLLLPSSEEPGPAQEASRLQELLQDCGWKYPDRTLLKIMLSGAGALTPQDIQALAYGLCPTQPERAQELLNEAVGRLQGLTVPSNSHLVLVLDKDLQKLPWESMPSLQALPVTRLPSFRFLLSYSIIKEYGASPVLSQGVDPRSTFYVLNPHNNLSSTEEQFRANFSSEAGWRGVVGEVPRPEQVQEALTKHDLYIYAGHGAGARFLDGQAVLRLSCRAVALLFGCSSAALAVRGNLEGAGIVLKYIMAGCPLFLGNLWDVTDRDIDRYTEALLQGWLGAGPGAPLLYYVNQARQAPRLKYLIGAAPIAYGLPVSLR

[2] = test system: human separase; test: Covalent labelling of separase forms by biotin peptide (avidin blot); assay type: binding; settings: recombinant securin bound to cleaved active separase, then human peptide inhibitor (FIG. 4D)
Experimental: as §2
Target sequence in this assay (Q14674 1536-2120 limits assumed): as above
Interphase Xenopus egg extracts were driven into mitosis in the presence of 1 mM Biotin-SVEQGR-amk or DMSO. Those mitotic Xenopus egg extracts were used to activate a batch of separase immunoprecipitates.
Biotin labeled peptides were detected via immunoblotting according to Faleiro et al., 1997.
C. […] After 10 min incubation at 22° C. and 1250 rpm beads were again washed and analyzed by immunoblotting.
FIG. 4B: Separase IPs (see A) were either preincubated with Biotin-SVEQGR-amk (preinc. with inh. peptide) or with DMSO (preinc. with DMSO), subsequently washed and aliquots were taken. […] All samples were analysed by immunoblotting with avidin.
FIG. 4D: Activated separase immunoprecipitates bound by antibodies against the C-terminus of separase to beads were first incubated with recombinant securin or, for control, with recombinant truncated cyclinB. […] Thereafter, the immunoprecipitates were again washed and analyzed by immunoblotting.

[3] = test system: human separase; test: Rebinding of recombinant securin to mitotically activated separase immunoprecipitates; assay type: binding; settings: separase activated in mitotic Xenopus extracts, mostly cleaved form
Experimental: as §1
Target sequence in this assay (Q14674 1-1486 limits assumed): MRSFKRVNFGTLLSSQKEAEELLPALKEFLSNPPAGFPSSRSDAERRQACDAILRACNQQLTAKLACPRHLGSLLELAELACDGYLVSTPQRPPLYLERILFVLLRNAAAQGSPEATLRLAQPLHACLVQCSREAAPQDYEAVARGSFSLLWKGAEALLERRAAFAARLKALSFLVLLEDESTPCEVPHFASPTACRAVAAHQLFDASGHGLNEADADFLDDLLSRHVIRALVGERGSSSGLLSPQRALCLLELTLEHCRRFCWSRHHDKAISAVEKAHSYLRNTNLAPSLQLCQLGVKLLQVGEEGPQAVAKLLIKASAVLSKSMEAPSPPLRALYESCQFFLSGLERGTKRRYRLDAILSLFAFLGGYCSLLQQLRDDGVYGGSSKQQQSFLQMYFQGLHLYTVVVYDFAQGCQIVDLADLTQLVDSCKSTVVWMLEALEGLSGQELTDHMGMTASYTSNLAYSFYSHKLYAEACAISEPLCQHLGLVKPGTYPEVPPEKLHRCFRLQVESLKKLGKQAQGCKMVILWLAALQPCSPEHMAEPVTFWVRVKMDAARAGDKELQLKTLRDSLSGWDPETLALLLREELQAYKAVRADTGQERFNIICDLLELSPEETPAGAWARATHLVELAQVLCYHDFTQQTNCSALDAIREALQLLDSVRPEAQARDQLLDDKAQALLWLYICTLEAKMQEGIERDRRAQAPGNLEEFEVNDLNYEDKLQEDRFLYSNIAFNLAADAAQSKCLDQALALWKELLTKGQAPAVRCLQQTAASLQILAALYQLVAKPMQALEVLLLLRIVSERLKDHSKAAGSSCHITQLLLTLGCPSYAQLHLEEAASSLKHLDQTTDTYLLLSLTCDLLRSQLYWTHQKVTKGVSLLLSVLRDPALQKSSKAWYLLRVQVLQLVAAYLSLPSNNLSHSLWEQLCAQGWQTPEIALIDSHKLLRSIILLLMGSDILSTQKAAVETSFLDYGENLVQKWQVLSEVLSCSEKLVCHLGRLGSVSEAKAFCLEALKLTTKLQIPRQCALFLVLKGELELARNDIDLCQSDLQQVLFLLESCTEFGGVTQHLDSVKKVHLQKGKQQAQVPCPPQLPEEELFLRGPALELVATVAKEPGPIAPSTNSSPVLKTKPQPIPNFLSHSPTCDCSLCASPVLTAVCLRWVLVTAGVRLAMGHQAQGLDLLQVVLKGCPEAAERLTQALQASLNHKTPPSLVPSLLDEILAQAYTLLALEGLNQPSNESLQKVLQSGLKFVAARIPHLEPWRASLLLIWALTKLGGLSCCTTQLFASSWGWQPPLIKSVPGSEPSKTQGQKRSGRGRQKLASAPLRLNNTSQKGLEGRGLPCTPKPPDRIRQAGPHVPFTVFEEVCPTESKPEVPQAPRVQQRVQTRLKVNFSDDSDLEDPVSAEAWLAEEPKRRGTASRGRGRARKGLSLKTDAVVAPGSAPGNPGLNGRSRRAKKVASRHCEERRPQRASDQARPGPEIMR
Target sequence in this assay (Q14674 1536-2120 limits assumed): as the sequence (Q14674 1536-2120 limits assumed) above
FIG. 1A: Separase immunoprecipitates (separase IP) obtained from Nocodazole arrested HeLa cells and bound by antibodies against the C-terminus of separase coupled to beads were activated in mitotic Xenopus egg extracts (separase IP^mitotic). Mitotically activated separase immunoprecipitates were either incubated in buffer, wildtype securin, destruction box deleted securin or in BSA. Aliquots were taken and analysed by immunoblotting with antibodies against separase and securin.

B1: WT-securin: human securin expressed in E. coli and purified, the wildtype protein (protein)
chain: MATLIYVDKENGEPGTRVVAKDGLKLGSGPSIKALDGRSQVSTPRFGKTFDAPPALPKATRKALGTVNRATEKSVKTKGPLKQKQPSFSAKKMTEKTVKAKSSVPASDDAYPEIEKFFPFNPLDFESFDLPEEHQIAHLPLSGVPLMILDEERELEKLFQLGPPSPVKMPSPPWESNLLQSPSSILSTLDVELPPVCCDIDI
In the case of B1, the “SCC1 cleavage by separase” value [1] is reported as “no cleavage of SCC1 was detected”, the “binding of peptide inhibitors to the active site of separase” value [2] is reported as “prevented the binding of peptide inhibitors to the active site of separase” and the “binding of securin to separase” value [3] is reported as “able to bind to separase”.
